Assay results from the Human Domainome abundance scans (Beltran et al. 2025).
± gives the uncertainty stated by the source.

B1: Connector enhancer of kinase suppressor of ras 2, residues 9 to 71; numbered along this chain, Q8WXI2 (parent)
chain: SKWSPSQVVDWMKGLDDCLQQYIKNFEREKISGDQLLRITHQELEDLGVSRIGHQELILEAVD

Variants of: B1
Assay: abundance fitness (aPCA) (normalised: wild type 0, dead -1); higher = more abundant; growth selection in yeast, the domain comes from the species named
Details: Homo sapiens

Variant	abundance fitness
Q21F	-0.539 ± 0.041
Q21D	-0.095 ± 0.035
G33T	-0.645 ± 0.046
G33F	-0.198 ± 0.05
G33H	-0.669 ± 0.073
G33I	-0.387 ± 0.1
G33E	-0.855 ± 0.092
G33K	-0.462 ± 0.07
G33W	-0.216 ± 0.045
G33L	-0.423 ± 0.034
Q42I	-0.558 ± 0.086
Q42M	-0.319 ± 0.05
R38C	-0.189 ± 0.034
R38A	-0.031 ± 0.04
R38Q	-0.134 ± 0.039
R38I	-0.543 ± 0.046
R38G	-0.106 ± 0.026
R38E	-0.302 ± 0.053
R38D	-0.163 ± 0.05
R38M	-0.307 ± 0.05
R38P	-0.681 ± 0.055
L57N	-0.533 ± 0.049
L57V	-0.439 ± 0.033
L57S	-0.298 ± 0.033

Variant	abundance fitness
W3A	-0.653 ± 0.085
W3R	-0.498 ± 0.04
W3D	-0.393 ± 0.061
W3P	-0.764 ± 0.16
W3G	-0.597 ± 0.04
W3S	-0.504 ± 0.072
K13R	-0.003 ± 0.028
K13W	-0.339 ± 0.034
E45R	-0.017 ± 0.021
E45I	-0.076 ± 0.035
E45Q	-0.007 ± 0.047
E45T	-0.034 ± 0.03
E45C	-0.018 ± 0.031
E45L	-0.045 ± 0.026
E45M	-0.066 ± 0.033
E45D	-0.167 ± 0.056
E45K	0.021 ± 0.042
E45W	-0.193 ± 0.027
G48E	-0.692 ± 0.055
G48L	-0.991 ± 0.055
G48V	-1.01 ± 0.064
G48D	-0.64 ± 0.075
G48H	-0.813 ± 0.1
G48N	-0.66 ± 0.078

Variant	abundance fitness
K30L	-0.225 ± 0.028
K30F	-0.324 ± 0.04
K30C	-0.097 ± 0.028
W11I	-1 ± 0.11
W11G	-0.675 ± 0.04
W11M	-0.943 ± 0.058
W11Q	-0.681 ± 0.054
W11C	-0.834 ± 0.072
W11H	-0.738 ± 0.049
I58R	-0.811 ± 0.076
I58V	-0.374 ± 0.063
I58L	-0.096 ± 0.039
D10F	-0.34 ± 0.041
D10N	-0.087 ± 0.036
D10G	-0.122 ± 0.035
D10P	-0.929 ± 0.056
D10K	-0.161 ± 0.039
D10R	-0.176 ± 0.031
C18W	-0.991 ± 0.069
C18Q	-0.124 ± 0.039
C18V	-0.118 ± 0.024
C18P	-0.239 ± 0.033
C18G	-0.182 ± 0.026
C18Y	-0.877 ± 0.061

Variant	abundance fitness
C18R	-0.314 ± 0.032
C18K	-0.301 ± 0.047
S4D	-0.027 ± 0.031
S4T	-0.053 ± 0.047
S4N	0.001 ± 0.042
S4H	-0.385 ± 0.067
S50M	-0.09 ± 0.1
S50I	-0.571 ± 0.26
S50T	0.039 ± 0.055
S50L	-0.072 ± 0.033
S50N	-0.471 ± 0.34
L59W	-0.758 ± 0.056
L59I	-0.241 ± 0.048
L59M	-0.032 ± 0.039
L59R	-0.363 ± 0.028
D46G	-0.075 ± 0.026
D46A	-0.054 ± 0.031
D46N	-0.006 ± 0.036
D46C	-0.188 ± 0.044
D46R	0.027 ± 0.023
L15R	-0.535 ± 0.037
L15C	-0.552 ± 0.059
L15Q	-0.164 ± 0.035
L15E	-0.371 ± 0.027

Variant	abundance fitness
L15G	-0.675 ± 0.044
L15D	-0.702 ± 0.05
L15S	-0.539 ± 0.031
Q55L	-0.948 ± 0.041
Q55P	-0.654 ± 0.042
Q55A	-0.296 ± 0.03
Q55T	-0.598 ± 0.036
Q55Y	-1.02 ± 0.16
Q55K	-0.051 ± 0.034
Q55V	-0.319 ± 0.029
D34V	-0.159 ± 0.029
D34I	-0.213 ± 0.055
D34F	-0.281 ± 0.056
D34M	-0.108 ± 0.037
D34W	-0.142 ± 0.038
D34S	-0.06 ± 0.027
D34R	-0.075 ± 0.021
D34A	0.037 ± 0.028
H54C	-0.835 ± 0.07
H54K	-0.843 ± 0.052
H54T	-0.874 ± 0.049
H54N	-0.65 ± 0.036
S1D	-0.028 ± 0.059
S1T	-0.198 ± 0.04

Variant	abundance fitness
S1G	-0.134 ± 0.052
S1C	-0.07 ± 0.048
S1V	-0.015 ± 0.056
G14F	-1.06 ± 0.13
G14M	-0.421 ± 0.043
G14Y	-1.04 ± 0.11
G14H	-0.468 ± 0.1
G14A	-0.41 ± 0.034
E60W	-0.664 ± 0.04
E60Q	0.006 ± 0.046
E60D	-0.012 ± 0.047
E60F	-0.615 ± 0.058
E60T	-0.057 ± 0.03
E60M	-0.226 ± 0.032
L36Y	-1.01 ± 0.086
L36P	-0.928 ± 0.069
L36C	-0.961 ± 0.089
L36N	-0.854 ± 0.075
L36R	-0.82 ± 0.038
L36T	-0.88 ± 0.06
N25G	-0.139 ± 0.03
N25L	-0.089 ± 0.026
N25I	-0.088 ± 0.083
V62M	-0.552 ± 0.043

Variant	abundance fitness
V62A	-0.335 ± 0.04
V62G	-0.802 ± 0.046
V62W	-0.909 ± 0.17
L37C	-0.108 ± 0.041
L37G	-0.168 ± 0.028
L37N	-0.154 ± 0.047
L37W	-0.349 ± 0.045
L37M	0.012 ± 0.049
L37Y	-0.28 ± 0.043
L37A	-0.073 ± 0.023
L37Q	-0.151 ± 0.038
L19F	-0.548 ± 0.052
L19D	-0.608 ± 0.042
L19C	-0.244 ± 0.034
L19Y	-0.816 ± 0.085
L19I	-0.102 ± 0.066
L19Q	-0.604 ± 0.047
L19V	-0.112 ± 0.026
L19S	-0.642 ± 0.037
G53T	0.042 ± 0.027
G53C	-0.05 ± 0.036
G53H	-0.015 ± 0.048
G53N	0.084 ± 0.081
G53Q	0.061 ± 0.034

Variant	abundance fitness
E29M	-0.054 ± 0.041
E29T	-0.139 ± 0.037
E29Y	-0.102 ± 0.046
E29K	0.02 ± 0.05
E29N	-0.143 ± 0.057
S32R	-0.142 ± 0.022
S32L	-0.706 ± 0.039
S32T	0.022 ± 0.03
K2E	-0.29 ± 0.14
K2G	-0.059 ± 0.041
K2H	0.047 ± 0.047
K2C	-0.084 ± 0.029
K2P	-0.167 ± 0.073
K2D	-0.053 ± 0.033
K2Y	-0.012 ± 0.033
I31N	-0.732 ± 0.07
I31K	-0.886 ± 0.063
I31W	-0.74 ± 0.056
I31H	-0.71 ± 0.069
I31D	-0.931 ± 0.1
I31Q	-0.87 ± 0.082
I31R	-0.873 ± 0.041
I31L	-0.26 ± 0.03
V49W	-0.866 ± 0.052

Variant	abundance fitness
Q35C	-0.328 ± 0.061
Q35A	-0.088 ± 0.033
Q35Y	-0.39 ± 0.074
Q35S	-0.291 ± 0.039
S6E	-0.033 ± 0.035
S6A	0.036 ± 0.023
S6I	-0.17 ± 0.04
S6Y	-0.166 ± 0.034
S6H	-0.04 ± 0.044
S6T	0.015 ± 0.033
S6P	-0.328 ± 0.038
P5I	-0.233 ± 0.062
P5M	-0.377 ± 0.044
P5C	0.026 ± 0.041
P5Y	0 ± 0.051
D16L	-0.702 ± 0.035
D16V	-0.675 ± 0.032
D16C	-0.72 ± 0.041
L47R	-0.688 ± 0.038
L47M	-0.083 ± 0.039
L47A	-0.681 ± 0.032
L47T	-0.805 ± 0.049
L47W	-0.622 ± 0.047
L47P	-0.762 ± 0.048

Variant	abundance fitness
L47N	-0.783 ± 0.059
F26R	-0.867 ± 0.039
F26A	-0.824 ± 0.041
F26N	-0.893 ± 0.13
F26K	-0.852 ± 0.027
F26Q	-0.772 ± 0.05
E27V	-0.261 ± 0.027
E27H	-0.376 ± 0.054
E27T	-0.197 ± 0.033
E27I	-0.436 ± 0.17
E27C	-0.406 ± 0.038
E27S	-0.258 ± 0.03
E27D	-0.248 ± 0.041
E27M	-0.205 ± 0.058
E43F	-0.455 ± 0.042
E43M	-0.165 ± 0.042
E43D	0.011 ± 0.034
E43I	-0.46 ± 0.045
E43Q	0.03 ± 0.037
E43C	-0.332 ± 0.036
E43L	-0.41 ± 0.03
E43N	-0.121 ± 0.035
Q20W	-0.133 ± 0.031
Q20F	-0.179 ± 0.039

Variant	abundance fitness
Q20R	-0.214 ± 0.024
Q20M	-0.17 ± 0.029
Q20H	0.049 ± 0.032
Q20G	-0.152 ± 0.023
D63C	-0.025 ± 0.05
D63G	0.041 ± 0.035
D63H	0 ± 0.045
D63K	-0.059 ± 0.087
I52K	0.048 ± 0.035
I52A	-0.011 ± 0.027
I52G	-0.074 ± 0.025
Q7A	-0.211 ± 0.031
Q7M	-0.12 ± 0.034
Q7N	-0.331 ± 0.049
Q7G	-0.457 ± 0.029
Q7P	-0.666 ± 0.057
Q7E	-0.006 ± 0.033
I39W	-0.737 ± 0.04
I39N	-0.67 ± 0.053
I39C	-0.416 ± 0.052
I39H	-0.65 ± 0.071
I39M	0.009 ± 0.034
L44S	-0.784 ± 0.039
L44K	-0.791 ± 0.068

Variant	abundance fitness
L44Q	-0.932 ± 0.12
L44M	-0.399 ± 0.05
D17E	-0.018 ± 0.037
D17W	-0.497 ± 0.045
D17P	-0.051 ± 0.031
D17C	-0.06 ± 0.063
D17I	-0.4 ± 0.043
D17M	-0.268 ± 0.035
D17L	-0.446 ± 0.027
I23L	-0.163 ± 0.028
I23F	-0.765 ± 0.092
I23N	-0.475 ± 0.044
I23M	-0.34 ± 0.05
I23K	-0.361 ± 0.058
I23V	-0.008 ± 0.023
T40P	-0.784 ± 0.05
T40E	-0.548 ± 0.038
T40I	-0.893 ± 0.093
T40G	-0.12 ± 0.027
T40M	-0.907 ± 0.082
T40V	-0.877 ± 0.04
T40K	-0.186 ± 0.042
T40L	-1.07 ± 0.076
H41M	-0.125 ± 0.047

Variant	abundance fitness
H41S	-0.007 ± 0.027
H41Q	-0.037 ± 0.033
R51N	0.063 ± 0.046
R51V	0.061 ± 0.029
R51E	0.088 ± 0.044
R51G	-0.083 ± 0.026
R51H	0.018 ± 0.039
R51D	0.081 ± 0.043
R51F	0.006 ± 0.033
R28Y	-0.28 ± 0.069
R28N	-0.067 ± 0.051
R28S	-0.056 ± 0.026
R28D	-0.043 ± 0.052
R28M	-0.094 ± 0.03
R28L	-0.15 ± 0.023
R28G	-0.262 ± 0.031
V9W	-0.863 ± 0.049
V9R	-0.268 ± 0.025
V9N	-0.562 ± 0.061
V9G	-0.128 ± 0.031
V9S	-0.207 ± 0.027
V9K	-0.334 ± 0.044
V9F	-0.764 ± 0.081
V9C	-0.054 ± 0.039

Variant	abundance fitness
V9I	-0.035 ± 0.03
V9T	-0.11 ± 0.035
V8M	-0.771 ± 0.058
V8Q	-0.947 ± 0.092
V8L	-0.775 ± 0.044
V8W	-1.05 ± 0.083
V8P	-0.773 ± 0.052
V8Y	-1.01 ± 0.086
M12Y	-0.386 ± 0.051
M12R	-1.01 ± 0.052
M12K	-0.827 ± 0.095
M12N	-1 ± 0.087
E56C	-0.176 ± 0.043
E56K	0.041 ± 0.037
E56R	-0.009 ± 0.027
E56V	-0.161 ± 0.034
Y22S	-0.742 ± 0.043
Y22D	-0.571 ± 0.037
Y22R	-0.728 ± 0.035
Y22L	-0.899 ± 0.053
Y22N	-0.747 ± 0.062
Y22E	-0.753 ± 0.06
